# What was measured:
# [1] = molecular target: human pro B-type natriuretic peptide (HyTest, Turku, Finland; Catalog No. 8PRO8) (human); experiment: sandwich CMIA, capture 15C4, analyte 43.3 pM
# [2] = molecular target: glycosylated human proBNP (HyTest, Turku, Finland; Catalog No. 8GOB2) (human); experiment: sandwich CMIA, capture 15C4, analyte 43.3 pM
# [3] = molecular target: human NT-pro B-type natriuretic peptide (HyTest, Turku, Finland; Catalog No. 8NT1) (human); experiment: sandwich CMIA, capture 15C4, analyte 43.3 pM
# Chain of human NT-pro B-type natriuretic peptide (HyTest, Turku, Finland; Catalog No. 8NT1) (human) (chain, as listed by the source): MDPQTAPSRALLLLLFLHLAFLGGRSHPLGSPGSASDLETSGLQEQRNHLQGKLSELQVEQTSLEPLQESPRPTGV
# [4] = molecular target: human pro B-type natriuretic peptide (HyTest, Turku, Finland; Catalog No. 8PRO8) (human); experiment: sandwich CMIA, capture 15C4, analyte 86.6 pM
# [5] = molecular target: glycosylated human proBNP (HyTest, Turku, Finland; Catalog No. 8GOB2) (human); experiment: sandwich CMIA, capture 15C4, analyte 86.6 pM
# [6] = molecular target: human NT-pro B-type natriuretic peptide (HyTest, Turku, Finland; Catalog No. 8NT1) (human); experiment: sandwich CMIA, capture 15C4, analyte 86.6 pM
# [7] = molecular target: human pro B-type natriuretic peptide (HyTest, Turku, Finland; Catalog No. 8PRO8) (human); experiment: sandwich CMIA, capture 15C4, analyte 577.4 pM
# [8] = molecular target: glycosylated human proBNP (HyTest, Turku, Finland; Catalog No. 8GOB2) (human); experiment: sandwich CMIA, capture 15C4, analyte 577.4 pM
# [9] = molecular target: human NT-pro B-type natriuretic peptide (HyTest, Turku, Finland; Catalog No. 8NT1) (human); experiment: sandwich CMIA, capture 15C4, analyte 577.4 pM
# [10] = molecular target: human pro B-type natriuretic peptide (HyTest, Turku, Finland; Catalog No. 8PRO8) (human); experiment: sandwich CMIA, capture 15C4, 43.3 pM, against human NT-proBNP
# [11] = molecular target: glycosylated human proBNP (HyTest, Turku, Finland; Catalog No. 8GOB2) (human); experiment: as above
# [12] = molecular target: human pro B-type natriuretic peptide (HyTest, Turku, Finland; Catalog No. 8PRO8) (human); experiment: sandwich CMIA, capture 15C4, 577.4 pM, against human NT-proBNP
# [13] = molecular target: glycosylated human proBNP (HyTest, Turku, Finland; Catalog No. 8GOB2) (human); experiment: as above
# [14] = molecular target: glycosylated human proBNP (HyTest, Turku, Finland; Catalog No. 8GOB2) (human); experiment: sandwich CMIA, capture 15F11, analyte 43.3 pM
# [15] = molecular target: human NT-pro B-type natriuretic peptide (HyTest, Turku, Finland; Catalog No. 8NT1) (human); experiment: sandwich CMIA, capture 15F11, analyte 43.3 pM
# [16] = molecular target: human pro B-type natriuretic peptide (HyTest, Turku, Finland; Catalog No. 8PRO8) (human); experiment: sandwich CMIA, capture 15F11, 43.3 pM, against human NT-proBNP
# [17] = molecular target: glycosylated human proBNP (HyTest, Turku, Finland; Catalog No. 8GOB2) (human); experiment: as above
# [18] = molecular target: human pro B-type natriuretic peptide (HyTest, Turku, Finland; Catalog No. 8PRO8) (human); experiment: sandwich CMIA, capture 15F11, analyte 86.6 pM
# [19] = molecular target: glycosylated human proBNP (HyTest, Turku, Finland; Catalog No. 8GOB2) (human); experiment: sandwich CMIA, capture 15F11, analyte 86.6 pM
# [20] = molecular target: human NT-pro B-type natriuretic peptide (HyTest, Turku, Finland; Catalog No. 8NT1) (human); experiment: sandwich CMIA, capture 15F11, analyte 86.6 pM
# [21] = molecular target: human pro B-type natriuretic peptide (HyTest, Turku, Finland; Catalog No. 8PRO8) (human); experiment: sandwich CMIA, capture 15F11, analyte 577.4 pM
# [22] = molecular target: glycosylated human proBNP (HyTest, Turku, Finland; Catalog No. 8GOB2) (human); experiment: sandwich CMIA, capture 15F11, analyte 577.4 pM
# [23] = molecular target: human NT-pro B-type natriuretic peptide (HyTest, Turku, Finland; Catalog No. 8NT1) (human); experiment: sandwich CMIA, capture 15F11, analyte 577.4 pM
# [24] = molecular target: human pro B-type natriuretic peptide (HyTest, Turku, Finland; Catalog No. 8PRO8) (human); experiment: sandwich CMIA, capture 15F11, analyte 0.0 pM (blank)
# [25] = molecular target: glycosylated human proBNP (HyTest, Turku, Finland; Catalog No. 8GOB2) (human); experiment: as above
# [26] = molecular target: human NT-pro B-type natriuretic peptide (HyTest, Turku, Finland; Catalog No. 8NT1) (human); experiment: as above
# [27] = molecular target: human pro B-type natriuretic peptide (HyTest, Turku, Finland; Catalog No. 8PRO8) (human); experiment: sandwich CMIA, capture 15F11, 86.6 pM, against human NT-proBNP
# [28] = molecular target: glycosylated human proBNP (HyTest, Turku, Finland; Catalog No. 8GOB2) (human); experiment: as above
# [29] = molecular target: human pro B-type natriuretic peptide (HyTest, Turku, Finland; Catalog No. 8PRO8) (human); experiment: sandwich CMIA, capture 15F11, analyte 288.7 pM
# [30] = molecular target: glycosylated human proBNP (HyTest, Turku, Finland; Catalog No. 8GOB2) (human); experiment: sandwich CMIA, capture 15F11, analyte 288.7 pM
# [31] = molecular target: human NT-pro B-type natriuretic peptide (HyTest, Turku, Finland; Catalog No. 8NT1) (human); experiment: sandwich CMIA, capture 15F11, analyte 288.7 pM
# [32] = molecular target: human pro B-type natriuretic peptide (HyTest, Turku, Finland; Catalog No. 8PRO8) (human); experiment: sandwich CMIA, capture 15C4, analyte 288.7 pM
# [33] = molecular target: glycosylated human proBNP (HyTest, Turku, Finland; Catalog No. 8GOB2) (human); experiment: sandwich CMIA, capture 15C4, analyte 288.7 pM
# [34] = molecular target: human NT-pro B-type natriuretic peptide (HyTest, Turku, Finland; Catalog No. 8NT1) (human); experiment: sandwich CMIA, capture 15C4, analyte 288.7 pM
# Chain of human pro B-type natriuretic peptide (HyTest, Turku, Finland; Catalog No. 8PRO8) (human) (chain, as listed by the source): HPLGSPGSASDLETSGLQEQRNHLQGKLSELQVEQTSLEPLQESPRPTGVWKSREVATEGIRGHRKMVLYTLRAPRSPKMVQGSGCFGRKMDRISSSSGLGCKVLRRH
substance,measurement,setting,value
"anti-human NT-proBNP/anti-human proBNP labeled monoclonal antibody 29D12 (HyTest, Turku, Finland)",Analyte rlus,[1],2170 rlus
same,Analyte rlus,[2],877 rlus
same,Analyte rlus,[3],8870 rlus
same,Analyte rlus,[4],3830 rlus
same,Analyte rlus,[5],1020 rlus
same,Analyte rlus,[6],19300 rlus
same,Analyte rlus,[7],25900 rlus
same,Analyte rlus,[8],1420 rlus
same,Analyte rlus,[9],180000 rlus
same,% Cross-reactivity,[10],16%
same,% Cross-reactivity,[11],-0.2%
same,% Cross-reactivity,[12],14%
same,% Cross-reactivity,[13],0.3%
same,Analyte rlus,[14],2320 rlus
same,Analyte rlus,[15],1990 rlus
same,% Cross-reactivity,[16],61.2%
same,% Cross-reactivity,[17],132%
same,Analyte rlus,[18],2210 rlus
same,Analyte rlus,[19],4470 rlus
same,Analyte rlus,[20],3540 rlus
same,Analyte rlus,[21],11400 rlus
same,Analyte rlus,[22],38700 rlus
same,Analyte rlus,[23],33900 rlus
same,Analyte rlus,[24],912 rlus
same,Analyte rlus,[25],912 rlus
same,Analyte rlus,[26],912 rlus
same,% Cross-reactivity,[27],49.3%
same,% Cross-reactivity,[28],136%
same,Analyte rlus,[29],6140 rlus
same,Analyte rlus,[30],16400 rlus
same,Analyte rlus,[31],14600 rlus
same,Analyte rlus,[32],12100 rlus
same,Analyte rlus,[33],1220 rlus
same,Analyte rlus,[34],82800 rlus
